# Test system: Escherichia coli TOP10
# Assay: shrunken log2 fold change of peptide-encoding DNA abundance (4.5 h post-induction vs induction); higher = less antimicrobial activity (less host growth inhibition)
# Details: time post-induction: 4.5 h; library: site-saturation at positions 5, 18, 19, 20
# 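Further: peptides expressed intracellularly from a pBAD plasmid library in pooled LB shake-flask culture, induced with 0.3% L-arabinose, DNA abundance read by NGS, three biological replicates, DESeq2 with apeglm shrinkage.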
row,Sequence,shrunken log2 fold change
1,RRIRYRPPRLPRPRPRPLVAPRP,-0.274
2,RRIRKRPPRLPRPRPRPRFEPRP,0.43
3,RRIRIRPPRLPRPRPRPKNEPRP,-0.14
4,RRIRHRPPRLPRPRPRPHGVPRP,0.00355
5,RRIRPRPPRLPRPRPRPPVIPRP,0.332
6,RRIRQRPPRLPRPRPRPTGSPRP,-0.0708
7,RRIRIRPPRLPRPRPRPADWPRP,0.218
8,RRIRARPPRLPRPRPRPAHFPRP,0.25
9,RRIRARPPRLPRPRPRPEIGPRP,0.675
10,RRIRMRPPRLPRPRPRPARTPRP,1.53
11,RRIRWRPPRLPRPRPRPEHAPRP,0.921
12,RRIRIRPPRLPRPRPRPITLPRP,-0.237
13,RRIRRRPPRLPRPRPRPRNVPRP,0.226
14,RRIRHRPPRLPRPRPRPEMNPRP,-0.0935
15,RRIRPRPPRLPRPRPRPHFSPRP,-0.108
16,RRIRTRPPRLPRPRPRPTKGPRP,-0.183
17,RRIRPRPPRLPRPRPRPSNEPRP,-0.406
18,RRIRHRPPRLPRPRPRPKIYPRP,-0.296
19,RRIRKRPPRLPRPRPRPYGIPRP,-0.329
20,RRIRYRPPRLPRPRPRPMLIPRP,-0.767
21,RRIRARPPRLPRPRPRPTKLPRP,-0.00644
22,RRIRARPPRLPRPRPRPKSWPRP,0.89

row,Sequence,shrunken log2 fold change
1,RRIRIRPPRLPRPRPRPFPMPRP,-0.412
2,RRIRNRPPRLPRPRPRPMADPRP,0.0252
3,RRIRNRPPRLPRPRPRPWSKPRP,-0.167
4,RRIRFRPPRLPRPRPRPAKNPRP,-0.0212
5,RRIRARPPRLPRPRPRPDLGPRP,0.438
6,RRIRDRPPRLPRPRPRPSDLPRP,0.0645
7,RRIRRRPPRLPRPRPRPRWIPRP,0.356
8,RRIRFRPPRLPRPRPRPMPAPRP,0.283
9,RRIRTRPPRLPRPRPRPHAWPRP,3.26
10,RRIRRRPPRLPRPRPRPFTMPRP,-0.198
11,RRIRLRPPRLPRPRPRPVLGPRP,0.192
12,RRIRMRPPRLPRPRPRPPECPRP,0.369
13,RRIRRRPPRLPRPRPRPETQPRP,0.164
14,RRIRCRPPRLPRPRPRPNETPRP,-0.0198
15,RRIRHRPPRLPRPRPRPTYGPRP,-0.106
16,RRIRNRPPRLPRPRPRPPGIPRP,-0.0351
17,RRIRARPPRLPRPRPRPSAIPRP,0.173
18,RRIRVRPPRLPRPRPRPLCDPRP,-0.108
19,RRIRKRPPRLPRPRPRPKYIPRP,-0.0449
20,RRIRGRPPRLPRPRPRPLVLPRP,0.401
21,RRIRRRPPRLPRPRPRPAQNPRP,0.398
22,RRIRIRPPRLPRPRPRPVAWPRP,-0.0525

row,Sequence,shrunken log2 fold change
1,RRIRYRPPRLPRPRPRPYHFPRP,-0.535
2,RRIRWRPPRLPRPRPRPTMLPRP,0.101
3,RRIRWRPPRLPRPRPRPSHKPRP,-0.193
4,RRIRCRPPRLPRPRPRPVRTPRP,0.39
5,RRIRARPPRLPRPRPRPCRYPRP,-0.215
6,RRIRWRPPRLPRPRPRPMEVPRP,-0.00973
7,RRIRWRPPRLPRPRPRPWYTPRP,-0.0512
8,RRIRPRPPRLPRPRPRPRQFPRP,0.556
9,RRIRGRPPRLPRPRPRPKPPPRP,2.28
10,RRIRDRPPRLPRPRPRPDEDPRP,1.46
11,RRIRHRPPRLPRPRPRPFDLPRP,-0.211
12,RRIRFRPPRLPRPRPRPGCLPRP,-0.0626
13,RRIRQRPPRLPRPRPRPGSFPRP,-0.0531
14,RRIRWRPPRLPRPRPRPNQFPRP,0.0104
15,RRIRMRPPRLPRPRPRPRTCPRP,0.00872
16,RRIRARPPRLPRPRPRPECTPRP,1.05
17,RRIRNRPPRLPRPRPRPGKPPRP,-0.117
18,RRIRIRPPRLPRPRPRPARPPRP,0.474
19,RRIRYRPPRLPRPRPRPHLYPRP,-1.35
20,RRIRERPPRLPRPRPRPRSYPRP,-0.0497
21,RRIRSRPPRLPRPRPRPSVPPRP,-0.634
22,RRIRVRPPRLPRPRPRPNGLPRP,-0.0536

row,Sequence,shrunken log2 fold change
1,RRIRKRPPRLPRPRPRPAPGPRP,0.637
2,RRIRDRPPRLPRPRPRPETDPRP,0.0208
3,RRIRERPPRLPRPRPRPRSNPRP,-0.0433
4,RRIRKRPPRLPRPRPRPKHAPRP,-0.0322
5,RRIRGRPPRLPRPRPRPIDHPRP,0.115
6,RRIRQRPPRLPRPRPRPSHIPRP,-0.0881
7,RRIRVRPPRLPRPRPRPKQNPRP,0.385
8,RRIRVRPPRLPRPRPRPDVVPRP,-0.36
9,RRIRERPPRLPRPRPRPVGMPRP,-0.0934
10,RRIRIRPPRLPRPRPRPEYHPRP,-0.152
11,RRIRCRPPRLPRPRPRPHNGPRP,-1.03
12,RRIRVRPPRLPRPRPRPHCGPRP,-0.309
13,RRIRLRPPRLPRPRPRPKWEPRP,-0.00197
14,RRIRPRPPRLPRPRPRPQNIPRP,-0.456
15,RRIRPRPPRLPRPRPRPDRMPRP,-0.234
16,RRIRIRPPRLPRPRPRPKLEPRP,-0.136
17,RRIRWRPPRLPRPRPRPSKNPRP,-0.158
18,RRIRWRPPRLPRPRPRPANNPRP,-0.205
19,RRIRKRPPRLPRPRPRPCDGPRP,0.00408
20,RRIRERPPRLPRPRPRPQITPRP,-0.778
21,RRIRKRPPRLPRPRPRPEVVPRP,0.016
22,RRIRMRPPRLPRPRPRPTRWPRP,2.21

row,Sequence,shrunken log2 fold change
1,RRIRDRPPRLPRPRPRPIGYPRP,-0.174
2,RRIRHRPPRLPRPRPRPKREPRP,-0.0483
3,RRIRTRPPRLPRPRPRPTIRPRP,-0.0471
4,RRIRERPPRLPRPRPRPQAAPRP,-0.194
5,RRIRARPPRLPRPRPRPGKNPRP,0.124
6,RRIRGRPPRLPRPRPRPFVQPRP,0.0324
7,RRIRLRPPRLPRPRPRPYKEPRP,-0.0365
8,RRIRERPPRLPRPRPRPATCPRP,-0.292
9,RRIRHRPPRLPRPRPRPCVKPRP,-0.121
10,RRIRFRPPRLPRPRPRPRCIPRP,-0.606
11,RRIRHRPPRLPRPRPRPTMAPRP,-0.0607
12,RRIRARPPRLPRPRPRPDHEPRP,-0.0137
13,RRIRLRPPRLPRPRPRPSAFPRP,-0.181
14,RRIRDRPPRLPRPRPRPHYPPRP,-0.265
15,RRIRWRPPRLPRPRPRPNMLPRP,0.0876
16,RRIRNRPPRLPRPRPRPLFTPRP,-0.0916
17,RRIRHRPPRLPRPRPRPGNDPRP,-0.583
18,RRIRYRPPRLPRPRPRPKEDPRP,-0.122
19,RRIRVRPPRLPRPRPRPCWCPRP,0.0389
20,RRIRSRPPRLPRPRPRPEENPRP,0.64
21,RRIRCRPPRLPRPRPRPEYSPRP,-0.38

# Reference: the supplement of paper PMC9112550, “Optimization of the antimicrobial peptide Bac7 by deep mutational scanning” (BMC Biology, 2022)
